Key:
[1] = molecular target: CD44v6 on cultured cancer cells (BHT-101, ACT-1, A431) (human) (UniProt P16070); assay: LigandTracer, 177Lu-antibody on A431 cells
Human v6-peptide (human) [2] = molecular target: T1, Human v6-peptide (human); assay: SPR SCK, biotin-peptide on SA chip, antibody injected
T1 sequence (peptide, N-terminal biotin): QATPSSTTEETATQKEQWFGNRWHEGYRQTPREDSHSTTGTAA

[3] = molecular target: Human CD44v6 iso4-Fc (human) (UniProt P16070); assay: SPR SCK, antibody captured via anti-kappa, CD44v6-Fc injected
Human CD44v6 iso4-Fc (human), sequence (P16070 other isoform, or with tags, fused parts or gaps limits assumed): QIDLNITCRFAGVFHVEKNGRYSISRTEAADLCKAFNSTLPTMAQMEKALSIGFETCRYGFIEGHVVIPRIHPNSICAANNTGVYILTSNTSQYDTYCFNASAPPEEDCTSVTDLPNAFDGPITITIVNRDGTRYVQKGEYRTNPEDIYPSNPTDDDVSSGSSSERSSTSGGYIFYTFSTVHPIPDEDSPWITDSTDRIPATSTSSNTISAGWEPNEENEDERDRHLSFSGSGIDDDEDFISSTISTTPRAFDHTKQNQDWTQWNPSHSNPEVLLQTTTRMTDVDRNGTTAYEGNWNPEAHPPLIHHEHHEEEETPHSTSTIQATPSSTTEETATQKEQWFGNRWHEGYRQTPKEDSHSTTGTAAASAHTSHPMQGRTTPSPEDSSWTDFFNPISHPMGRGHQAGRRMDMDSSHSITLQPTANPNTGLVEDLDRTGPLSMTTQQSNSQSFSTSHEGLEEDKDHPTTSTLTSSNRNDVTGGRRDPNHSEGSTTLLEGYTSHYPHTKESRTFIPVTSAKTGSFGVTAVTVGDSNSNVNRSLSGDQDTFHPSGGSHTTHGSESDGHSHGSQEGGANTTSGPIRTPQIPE

Human v6-peptide (human) [4] = molecular target: T1, Human v6-peptide (human); assay: SPR SCK, biotin-peptide on SA chip, antibody injected; apparent KD
[5] = molecular target: Human CD44v6 iso4-Fc (human) (UniProt P16070); assay: SPR SCK, antibody captured via anti-kappa, CD44v6-Fc injected; apparent KD
FcyR1 = assay: SPR
FcyR1, sequence (P12314 16-292): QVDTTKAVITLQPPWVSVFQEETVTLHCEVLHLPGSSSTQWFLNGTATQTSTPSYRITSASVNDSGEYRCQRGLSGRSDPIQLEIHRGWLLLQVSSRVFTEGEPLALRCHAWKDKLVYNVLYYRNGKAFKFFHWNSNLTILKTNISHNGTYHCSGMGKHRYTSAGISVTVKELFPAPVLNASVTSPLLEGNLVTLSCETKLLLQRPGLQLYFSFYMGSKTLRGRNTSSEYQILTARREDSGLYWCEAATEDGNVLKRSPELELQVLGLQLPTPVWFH

Substance	Kd [1]	koff (Human v6-peptide (human) [2])	kon (Human v6-peptide (human) [2])	koff [3]	kon [3]	Kd (Human v6-peptide (human) [4])	Kd [5]	Kd (FcyR1)
BIWA-4 IgG4 S228P (antibody)	0.3 nM	0.00017 s⁻¹	190000 M⁻¹ s⁻¹	0.00031 s⁻¹	6500 M⁻¹ s⁻¹	0.88 nM	48 nM	
Herceptin (antibody)								0.18 nM

Source: patent publication US20250340662A1
